The values that follow come from patent publication US6962792B1, “Methods and means for inhibition of Cdk4 activity” (Cyclacel Limited, priority 1996, dated 2005).

“Also recorded” adds a separate entry of the source. Where two headings read alike, the source gives them in different places. Where a SMILES comes first, the peptide text is derived from it. Where no end group is shown, it is not given here.

Test [1] deals with T1, cyclin D1-Cdk4 (Homo sapiens, UniProt P11802+P24385).
T1 construct: made in house; host or cells: Sf9 insect cells, baculovirus co-infection; unpurified lysate
T1 sequence (P11802 whole entry): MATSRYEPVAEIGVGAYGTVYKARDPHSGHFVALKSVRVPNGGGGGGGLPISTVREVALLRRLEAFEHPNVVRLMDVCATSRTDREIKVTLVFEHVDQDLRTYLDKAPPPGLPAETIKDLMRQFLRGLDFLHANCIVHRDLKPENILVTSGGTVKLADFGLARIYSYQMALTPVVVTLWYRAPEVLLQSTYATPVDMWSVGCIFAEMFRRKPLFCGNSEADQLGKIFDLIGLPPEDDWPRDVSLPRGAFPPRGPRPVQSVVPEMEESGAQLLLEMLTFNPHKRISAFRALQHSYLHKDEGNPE
T1 sequence (P24385 whole entry): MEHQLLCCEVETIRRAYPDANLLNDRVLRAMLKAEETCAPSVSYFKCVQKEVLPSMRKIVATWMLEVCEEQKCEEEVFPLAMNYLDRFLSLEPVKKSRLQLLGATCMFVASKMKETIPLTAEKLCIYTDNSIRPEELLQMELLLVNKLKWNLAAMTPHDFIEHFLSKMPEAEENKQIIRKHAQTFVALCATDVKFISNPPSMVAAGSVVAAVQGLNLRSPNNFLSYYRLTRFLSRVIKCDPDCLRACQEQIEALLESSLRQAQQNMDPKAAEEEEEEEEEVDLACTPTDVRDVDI
Put plainly: Cyclin D1-Cdk4 GST-Rb phosphorylation assay (Sf9 insect cell lysate). The test is classed as biochemical. The procedure:
(§1) “x” indicates no addition of peptide.
(§2) Cyclins and CDKs—Cdk4 and cyclin D1, Cdk2 and cyclin E and Cdc2 and cyclin B were co-expressed in Sf9 insect cells infected with the appropriate baculovirus constructs. The cells were harvested two days after infection by low speed centrifugation and the pellet was lysed in an equal volume of 10 mM Hepes, pH 7.4 containing: 10 mM NaCl, 1 mM EDTA, and 0.1 mM phenylmethane sulphonyl fluoride, 2 mM DTT and centrifuged at 14000×g for 15 min. The supernatant was removed, aliquoted and immediately frozen in liquid nitrogen. Thawed lysate was used only once and was never refrozen. Labelled Cdk4 and cyclin D1 were produced by translation in the presence of [^35S] methionine using a rabbit reticulocyte lysate in vitro translation kit (Promega).
(§3) Phosphorylation of GST-Rb—Cdk4 activity was measured using the cyclin D1-Cdk4 containing insect cell lysate described above. Extract (1 μl) was added to a final reaction volume of 10 μl, containing: 50 mM Hepes, pH 7.4, 10 mM MgCl2, 2.5 mM EGTA, 1 mM DTT, 10 mM β-glycerophosphate, 1 mM NaF, 10 mM PKI, 50 μM ATP containing [^32P] ATP (1000 cpm/pMol) and 0.5 μg GST-Rb. […] The samples were analysed by SDS-PAGE on 12% gels followed by auto-radiography and quantification using a Bio-Imager.

The target of test [2] is T2, cyclin D1-Cdk4 (Homo sapiens, UniProt P11802).
T2 construct: made in house; host or cells: Sf9 insect cells, baculovirus co-infection; unpurified lysate
T2 sequence (P11802 whole entry): as the sequence (P11802 whole entry) above
T2 sequence (P24385 whole entry, further chain): as the sequence (P24385 whole entry) above
The description is as above. Particulars: GST-Rb substrate; read-out: I0.5 for inhibition of Cdk4 activity. The test is classed as biochemical. Here is the method:
as §1, §2, §3

The target in test [3] is T1, cyclin D1-Cdk4. Nature of the test: Peptide phosphorylation by cyclin D1-Cdk4. The test is classed as biochemical. Particulars: conditions where 2.4 nMol 32P incorporated per nMol GST-Rb.
Method: The biotinylated peptides (1 μg) were incubated for 30 min at 30° C. in a final volume of 20 μl containing: 50 mM Hepes, pH 7.4, 10 mM MgCl2, 2.5 mM EGTA, 1 mM DTT, 10 mM β-glycerophosphate, 1 mM NaF, 10 mM PKI, 50 μM ATP containing [^32P]ATP (6000 cpm/pMol) and either 1 μl of cyclin D1-Cdk4 insect cell lysate, 1 μl of uninfected insect cell lysate or 0.02 mU of protein kinase C plus 0.5 mM CaCl2, 100 mg/ml phosphatidyl serine and 20 mg/ml diacylglycerol. The reactions were stopped by heating at 60° C. for 5 min and streptavidin agarose beads were added (10 μl packed cell volume washed with 3×PBS) and incubated with shaking at 4° C. for 30 min. The beads were washed extensively with PBS containing 3% (v/v) Tween-20 and the incorporation of radioactivity into the peptides was determined by Cerenkov counting.
For another test, the target named is T3, cyclin B-Cdc2 (Homo sapiens, UniProt P06493).
T3 construct: made in house; host or cells: Sf9 insect cells, baculovirus co-infection; unpurified lysate
T3 sequence (P06493 whole entry): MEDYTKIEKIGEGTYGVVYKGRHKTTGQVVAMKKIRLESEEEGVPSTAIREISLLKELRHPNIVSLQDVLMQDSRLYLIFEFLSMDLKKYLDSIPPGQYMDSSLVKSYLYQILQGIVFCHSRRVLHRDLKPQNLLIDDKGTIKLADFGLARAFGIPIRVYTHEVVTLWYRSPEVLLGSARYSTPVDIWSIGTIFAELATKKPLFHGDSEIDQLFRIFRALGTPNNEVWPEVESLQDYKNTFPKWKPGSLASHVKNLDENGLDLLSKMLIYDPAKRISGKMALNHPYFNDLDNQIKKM
T3 sequence (P14635 whole entry partner): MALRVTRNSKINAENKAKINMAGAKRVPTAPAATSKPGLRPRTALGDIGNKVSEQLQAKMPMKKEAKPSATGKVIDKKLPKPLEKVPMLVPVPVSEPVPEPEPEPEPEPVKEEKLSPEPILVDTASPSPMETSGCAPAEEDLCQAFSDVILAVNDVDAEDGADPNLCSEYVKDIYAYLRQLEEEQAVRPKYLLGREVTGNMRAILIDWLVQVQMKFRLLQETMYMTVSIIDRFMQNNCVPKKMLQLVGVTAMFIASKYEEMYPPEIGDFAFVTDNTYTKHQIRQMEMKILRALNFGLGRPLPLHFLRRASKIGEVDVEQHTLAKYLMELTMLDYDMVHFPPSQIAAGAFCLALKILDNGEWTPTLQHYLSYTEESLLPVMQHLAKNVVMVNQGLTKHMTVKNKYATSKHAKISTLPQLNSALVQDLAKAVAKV
Put plainly: Cyclin B-Cdc2 histone H1 kinase assay. The test is classed as biochemical. Particulars: concentrations up to 20 μM. The procedure: The conditions were identical to those described in the Experimental Procedures for cyclin D1-Cdk4 except that histone H1 (0.5 μg/assay) was used as the substrate for cyclin B-Cdc2.

Test [4] deals with pRb phosphorylation in HaCaT cells. Put plainly: pRb phosphorylation in HaCaT cells (Western blot). It counts as cell-based, human. Particulars: serum-starved HaCaT cells released with 10% FCS, 24 hour time course; Peptide-I 25 μM, Peptide-II 50 μM. An excerpt: Samples were taken at the times shown and analysed by SDS-PAGE/Western blot stained for pRb. pRb represents hypophosphorylated Rb protein and pRb* refers to hyperphosphorylated Rb protein. It should be pointed out that equal amounts of total protein were loaded per lane and that the antibody appears to preferentially recognise phosphorylated forms of the Rb protein. Peptide I corresponds with SEQ ID NO:24; peptide II corresponds with SEQ ID NO:25; and peptide III corresponds with SEQ ID NO:26.
HaCaT cells were seeded on 30 mm culture plates at 25% confluency in DMEM with 10% FCS. The FCS was withdrawn after 24 hours and the cells were starved for 72 hours. At the end of this period the medium was supplemented with 10% FCS and carrier linked peptides. Samples were taken over a 24 hour time course and the cells were lysed in RIPA buffer (50 mM Tris-HCl, pH 8.0, containing 150 mM NaCl, 1.0% (v/v) NP-40, 0.5% (w/v) DOC, 0.1% (w/v) SDS, 1 mM PMSF, 0.1 mg/ml aprotinin and 0.5 mg/ml leupeptin) for 30 minutes at 4° C. The phosphorylation statues of pRb was determined by Western blot analysis, as previously described (Fahraeus et al, 1996) except that the blot was probed with a pRb polyclonal antibody (C-15, Santa Cruz).

The subject of a further test is Soas2 cells. Nature of the test: Cell cycle arrest in Rb negative cells. It counts as cell-based.
In another test the test system is HaCaT cells. Put plainly: Cell cycle measurements by BrdU/FACS in HaCaT cells. It counts as cell-based, human. The following applies: for G1-, S-phase distribution / G1 arrest: proliferating HaCaT cells, 24 hours, Peptide-I and Peptide-III 25 μM, Peptide-II 50 μM. Here is the method:
The peptides were added to proliferating HaCaT cells, grown in DMEM plus 10% FCS. The cells were incubated for 24 hours pulse labelled during with 15 μM BrdU, fixed and then analysed by FACS.
Carrier linked peptides were designed for delivery into proliferating HaCaT cells (see FIG. 9). Cells were seeded on 30mm culture plates and grown to 50% confluency in Dulbecco's modified Eagle's medium (DMEM) supplemented with 10% (v/v) foetal calf serum (FCS). Peptides were added to the medium and the cells were incubated for 24 hours. During the last 30 minutes of the incubation the cells were pulse labelled in the presence of 15 μM BrdU. The cells were trypsinised, fixed in absolute alcohol and prepared for FACS analysis using a single laser flow cytometer (Becton-Dickinson, FACScan) as previously described (Renzing et al, 1996).

The target in test [5] is T1, cyclin D1-Cdk4. Put plainly: Relief of p21WAF1 inhibition in cyclin D1-Cdk4 GST-Rb phosphorylation assay. The following applies: peptide 1, 5, 17 & 34 μM, fixed concentration of p21WAF1. It counts as biochemical.
Test [6] deals with cyclin D1-Cdk4 complex co-expressed in Sf9 insect cells (lysate) (UniProt P11802). Put plainly: cell-based or functional assay.
cyclin D1-Cdk4 complex co-expressed in Sf9 insect cells (lysate) (UniProt P11802), sequence (P11802 whole entry, chain 1 of 2): as the sequence (P11802 whole entry) above
cyclin D1-Cdk4 complex co-expressed in Sf9 insect cells (lysate) (UniProt P11802), sequence (P24385 whole entry, chain 2 of 2, further chain): as the sequence (P24385 whole entry) above
Test [7] concerns the target cyclin D1-Cdk4 complex co-expressed in Sf9 insect cells (lysate) (UniProt P11802 1-303; P24385 1-295). Put plainly: cell-based or functional assay.
Test [8] deals with T4, cyclin D1 labelled with [35S]methionine, translated in rabbit reticulocyte lysate (human, UniProt P24385 1-295, [35S]methionine label).
T4 construct: also called 35S-labelled cyclin D1
T4 sequence (P24385 whole entry): as above
Nature of the test: peptide precipitation of 35S-labelled protein from reticulocyte lysate, SDS-PAGE and autoradiography.
Method: (§4) After extensive washing bound proteins were analysed using SDS-PAGE followed by autoradiography. The bands were quantified using a Bio-Imager and Whole Band Analysis Software (Millipore).
(§5) Peptide (1.5 μg) was diluted in 100 μl of PBS and incubated with 10 μl of packed streptavidin-agarose beads (Sigma) for 1 h at room temperature. Unbound peptide was removed by extensive washing with PBS and the beads, plus bound peptide, were incubated for 1 h at 4° C. with reticulocyte lysate containing either Cdk4 or cyclin D1 labelled with [^35S] methionine. […] The bound protein was analysed by SDS-PAGE followed by auto-radiography and quantification of the ^35S-labelled protein using a Bio-Imager and Whole Band Analysis Software (Millipore).

The target of test [9] is T5, Cdk4 labelled with [35S]methionine, translated in rabbit reticulocyte lysate (human, UniProt P11802 1-303, [35S]methionine label).
T5 construct: also called 35S-labelled Cdk4
T5 sequence (P11802 whole entry): as the sequence (P11802 whole entry) above
The description is as above.
Method: as §4, §5

cyclin D1-Cdk4 complex co-expressed in Sf9 insect cells (lysate) (UniProt P11802 1-303; P24385 1-295), sequence (P11802 whole entry, chain 1 of 2): as the sequence (P11802 whole entry) above
cyclin D1-Cdk4 complex co-expressed in Sf9 insect cells (lysate) (UniProt P11802 1-303; P24385 1-295), sequence (P24385 whole entry, chain 2 of 2): as the sequence (P24385 whole entry) above

For “8: synthetic peptide of the p21WAF1 library, SEQ ID NO:8 (AEEDHVDLSLSCTLVPRSGE) [compound 8]”, the “cyclin D1-Cdk4 inhibitory activity” value with cyclin D1-Cdk4 [1] is listed as “only weak inhibition”. Also, the “inhibition of cyclin D1-Cdk4 activity” value in the test with cyclin D1-Cdk4 [1] (peptide at 17 μM) is reported as “inhibited cyclin D1-Cdk4 activity”.

For the molecule `CC[C@H](C)[C@H](NC(=O)[C@H](CC(C)C)NC(=O)[C@H](CCCNC(=N)N)NC(=O)[C@H](CCCNC(=N)N)NC(=O)[C@@H](N)CCCCN)C(=O)N[C@@H](Cc1ccccc1)C(=O)N[C@@H](CO)C(=O)N[C@@H](CCCCN)C(=O)O` (H-KRRLIFSK-OH; C-terminus assumed), the “cyclin D1-Cdk4 inhibitory activity” value at cyclin D1-Cdk4 [1] was “completely inhibit cyclin D1-Cdk4 activity”. Besides, the “fold higher I0.5 than full length peptide” value at cyclin D1-Cdk4 [1] (versus full length peptide 10) is “approximately 1000 fold”. Further, the IC50 at cyclin D1-Cdk4 [2] is about 100 µM.

Take `CC(C)C[C@H](NC(=O)[C@H](CCCNC(=N)N)NC(=O)[C@H](CCCNC(=N)N)NC(=O)[C@H](CS)NC(=O)[C@H](C)NC(=O)[C@@H](N)CCCCN)C(=O)N[C@@H](Cc1ccccc1)C(=O)NCC(=O)N1CCC[C@H]1C(=O)N[C@H](C(=O)N[C@@H](CC(=O)O)C(=O)N[C@@H](CO)C(=O)N[C@@H](CCC(=O)O)C(=O)N[C@@H](CCC(N)=O)C(=O)N[C@@H](CC(C)C)C(=O)N[C@@H](CO)C(=O)N[C@@H](CCCNC(=N)N)C(=O)N[C@@H](CC(=O)O)C(=O)N[C@@H](CS)C(=O)N[C@@H](CC(=O)O)C(=O)O)C(C)C` [peptide 2] (H-KACRRLFGPVDSEQLSRDCD-OH; C-terminus assumed): the “substrate for cyclin D1-Cdk4” value on cyclin D1-Cdk4 [3] is “neither peptide 2 nor peptide 10 were substrates for cyclin D1-Cdk4”. In addition, the inhibition at 17 µM on cyclin D1-Cdk4 [1] (peptide at 17 μM, read-out: inhibition of kinase activity) was about 80%. Moreover, on cyclin B-Cdc2, the “effect on Cdc2-cyclin B histone H1 kinase activity” value is given as “neither peptide 2 nor peptide 10 had a significant effect”.

As for “Peptide-I: peptide 10 with M to A at position 7 synthesised onto Antennapedia carrier peptide, SEQ ID NO:24 (KRRQTSATDFYHSKRRLIFSRQIKIWFQNRRMKWKK)”, in test [4], the “phosphorylation status of pRb” value is listed as “pRb remained hypophosphorylated”. Also, the “cell cycle arrest / G1 population in pRb negative cells” value in the test on Soas2 cells is reported as “increase in the population of cells in G1 phase”. The “G1-, S-phase distribution / G1 arrest” value in the test on HaCaT cells was “number of cells entering S-phase in the presence of Peptide-I was dramatically reduced and the G1 population showed a concomitant increase”.

“Peptide-II: truncated peptide 10 coupled to carrier peptide, SEQ ID NO:25 (KRRLIFSKRQIKIWFQNRRMKWKK)”: in test [4], the “phosphorylation status of pRb” value is on record as “totally prevented the phosphorylation of pRb”. The “G1-, S-phase distribution / G1 arrest” value with HaCaT cells is “effectively promoted a G1-phase arrest”. Besides, the “fold less active as growth suppressor than Peptide-I” value in the test with HaCaT cells (versus Peptide-I) stood at 2 fold. Besides, the “fold lower I0.5 in vitro than free peptide” value with cyclin D1-Cdk4 [1] (carrier linked versus free peptide, data not shown) was “approximately 50 fold”.

Turning to “Peptide-III: carrier linked control peptide 10 lacking the last 4 amino acids (LIFS), SEQ ID NO:26 (RQTSMTDFYHSKRRRQIKIWFQNRRMKWKK)”, in the test on HaCaT cells, the “G1-, S-phase distribution / G1 arrest” value is recorded as “no detectable effect on the ability of HaCaT cells to enter S-phase”.

As to “R-A mutant: peptide 10 with R-A at residue 15, equivalent to residue 155 of the full length protein (KRRQTSMTDFYHSKARLIFSSGSG)”, the “block of inhibitory activity of full length p21WAF1” value with cyclin D1-Cdk4 [5] was “able to block the inhibitory activity of full length p21^WAF1”.

“p16INK4 derived peptide (Fahraeus et al., 1996)” yielded an I0.5 for inhibition of cyclin D1-Cdk4 activity in [6] of 16.3 µM.

As for “peptide 4: residues 46-65 of p21WAF1, SEQ ID NO:4, Biotin-SGSG spacer (RERWNFDFVTETPLEGDFAW; not fully specified (N-terminus, C-terminus))”, the “cyclin D1-Cdk4 inhibitory activity” value in the test with cyclin D1-Cdk4 [1] is recorded as “no detectable activity; also recorded: no Cdk4 inhibitory activity”; with cyclin D1-Cdk4 [1] (concentrations of up to 35 μM) it was “no inhibitory activity”.

Consider “peptide 11: extreme C-terminal peptide of p21WAF1, SEQ ID NO:11 (TSMTDFYHSKRRLIFSKRKP)”, for which the “cyclin D1-Cdk4 inhibitory activity” value in the test with cyclin D1-Cdk4 [1] is “potent inhibitor of Cdk4 activity”. Also, in the test with cyclin D1-Cdk4 [1] (peptide at 17 μM), the “inhibition of cyclin D1-Cdk4 activity” value is reported as “completely inhibited enzyme activity”.

Consider KRRLIFSKRQIKIWFQNRRMKWKK [Peptide-II (truncated peptide 10 linked to carrier peptide)], for which, in [7], the “fold decrease in fold I0.5 in vitro against the free truncated peptide 10” value was about 50 fold.

B1: peptide 11 (extreme C-terminal peptide of p21^WAF1) (peptide)
peptide: H-TSMTDFYHSKRRLIFSKRKPSGSG
modifications: not fully specified (C-terminus); also: biotin on C-terminal SGSG spacer, order not given here
For B1, the “I0.5 for inhibition of Cdk4 activity (GST-Rb phosphorylation)” value (“I0.5 for inhibition of Cdk4 activity” for short) in [7] was determined as 0.1 µM.

On to KRRLIFSK [untagged eight amino acid peptide KRRLIFSK], for which the “fold I0.5 against the full length peptide 10” value in test [7] was about 1000 fold.

B2: peptide 4 (residues 46-65 of p21^WAF1) (peptide)
peptide: H-RERWNFDFVTETPLEGDFAWSGSG
modifications: not fully specified (C-terminus); also: biotin on C-terminal SGSG spacer, order not given here
notes: Synthetic biotinylated peptide
As to B2, the binding result in test [8] was “no binding”.

KRRQTSMTDFYHSKRRLIFSSGSG (not fully specified; Biotin-SGSG spacer at the C-terminus; free N-terminus) [peptide 10 (residues 141-160 of p21^WAF1)]: the “I0.5 for inhibition of Cdk4 activity” value in test [7] came to 0.1 µM.

B3: peptide 10 mutant with R-A at residue 15 of peptide 10 (residue 155 of the full length protein) (peptide)
peptide: H-KRRQTSMTDFYHSKARLIFSSGSG
modifications: not fully specified (C-terminus); also: biotin on C-terminal SGSG spacer, order not given here
As for B3, in [7], the “loss of inhibitory activity against cyclin D1-Cdk4 relative to peptide 10” value was over 60%.

B4: peptide 2 (residues 16-35 of p21^WAF1) (peptide)
peptide: H-KACRRLFGPVDSEQLSRDCDSGSG
modifications: not fully specified (C-terminus); cysteine pairing not given here; also: biotin on C-terminal SGSG spacer, order not given here
notes: Synthetic biotinylated peptide, captured on streptavidin-agarose in the precipitation assay; The order of biotin and SGSG at the C-terminus is not spelled out
On to B4, for which, in test [7], the “I0.5 for inhibition of Cdk4 activity” value is 2 µM. In addition, in test [9], the binding result is recorded as “no binding”.
